Laboratory results: patent US20260232831A1 (FRONTAIM BIOMEDICINES, published 2026)

T1: human Trop2 on the cell surface (A-431, ME-180, MDA-MB-468 cells) (human, UniProt P09758 27-323)
T1 sequence (looked up): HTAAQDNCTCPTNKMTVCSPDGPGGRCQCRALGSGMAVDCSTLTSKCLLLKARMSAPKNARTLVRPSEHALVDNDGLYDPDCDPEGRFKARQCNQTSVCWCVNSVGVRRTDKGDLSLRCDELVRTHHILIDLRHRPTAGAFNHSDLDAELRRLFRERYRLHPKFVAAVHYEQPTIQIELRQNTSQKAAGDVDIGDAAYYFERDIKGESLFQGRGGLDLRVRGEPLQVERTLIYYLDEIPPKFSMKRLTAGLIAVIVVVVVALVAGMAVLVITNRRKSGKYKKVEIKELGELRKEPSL

B1: bispecific antibody 3scFv×hL0125C (bispecific antibody)
heavy: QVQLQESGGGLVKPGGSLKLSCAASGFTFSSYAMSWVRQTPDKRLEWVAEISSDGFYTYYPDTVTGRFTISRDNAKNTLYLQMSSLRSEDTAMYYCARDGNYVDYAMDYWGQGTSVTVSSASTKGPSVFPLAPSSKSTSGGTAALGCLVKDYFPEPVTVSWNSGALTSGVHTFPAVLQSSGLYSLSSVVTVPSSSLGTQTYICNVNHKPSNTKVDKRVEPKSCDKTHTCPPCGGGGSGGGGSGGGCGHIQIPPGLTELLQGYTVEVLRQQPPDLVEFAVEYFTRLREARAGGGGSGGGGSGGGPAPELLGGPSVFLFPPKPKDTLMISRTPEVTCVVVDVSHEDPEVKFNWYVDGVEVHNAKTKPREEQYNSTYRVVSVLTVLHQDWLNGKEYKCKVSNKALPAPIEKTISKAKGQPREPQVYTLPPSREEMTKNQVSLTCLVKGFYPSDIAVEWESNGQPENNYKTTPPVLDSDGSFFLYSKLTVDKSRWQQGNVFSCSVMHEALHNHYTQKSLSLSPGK
light: DIQLTQSPAIMSASPGERVTMTCRASSSVSSSYLHWYQQRSGQSPKLLIYSTSNLASGVPARFSGSGSGTDYSLTISSLEAEDAATYYCQQYSGSPLTFGSGTKLEIKRTVAAPSVFIFPPSDEQLKSGTASVVCLLNNFYPREAKVQWKVDNALQSGNSQESVTEQDSKDSTYSLSSTLTLSKADYEKHKVYACEVTHQGLSSPVTKSFNRGEC
scFv: not shown
modifications: The AD2 of the scFv is docked on the DDD2 dimer and locked by disulfide bonds; the complex holds 2 heavy chains, 2 light chains and 1 scFv.
notes: hL0125 IgG with DDD2 inserted in the hinge of each heavy chain; The DDD2 dimer docks the AD2 of one anti-CD3 scFv (3scFv), giving a 2+1 format assembled intracellularly; also called Construct C; Format C
B2: humanized anti-Trop2 antibody hL0125 (antibody, V domains shown)
VL: DIQLTQSPAIMSASPGERVTMTCRASSSVSSSYLHWYQQRSGQSPKLLIYSTSNLASGVPARFSGSGSGTDYSLTISSLEAEDAATYYCQQYSGSPLTFGSGTKLEIKR
VH: QVQLQESGGGLVKPGGSLKLSCAASGFTFSSYAMSWVRQTPDKRLEWVAEISSDGFYTYYPDTVTGRFTISRDNAKNTLYLQMSSLRSEDTAMYYCARDGNYVDYAMDYWGQGTSVTVSS
notes: Variable regions were cloned into human IgG expression vectors to give a full-size humanized IgG; also called modular antibody hL0125
B3: chimeric anti-Trop2 antibody cL0125 (antibody, V domains shown)
VH: VKLQESGGGLVKPGGSLKLSCAASGFTFSSYAMSWVRQSPEKRLEWVAEISSDGFYTYYPDTVTGRFTISRDNAKNTLYLEMSSLRSEDTAMYYCARDGNYVDYAMDYWGQGTSVTVSS
VL: DIQLTQSPAIMSASPGEKVTMTCRASSSVSSSYLHWYQQRSGASPKLWIYSTSNLASGVPARFSGSGSGTSYSLTISSVEAEDAATYYCQQYSGSPLTFGSGTKLEIKR
notes: Chimeric antibody made from the murine L0125 VL and VH

Key:
[1] = target: T1, human Trop2 on the cell surface (A-431, …); experiment: cell-based or functional assay
[2] = target: T1, human Trop2 on the cell surface (A-431, …); experiment: flow cytometry on ME-180 cells, AF488 goat anti-human IgG Fc detection
Method: For CD3 binding, Jurkat cells were dispensed into a 96-well plate at 2×10⁵/well, and incubated with indicated agents at 4° C. for 45 min. After wash with PBS, cells were incubated with AF488 labeled goat anti-human IgG Fe. For Trop2 binding, ME-180 cells were dissociated from culture, dispensed into a 96-well plate at 2×10⁵/well, and incubated with indicated agents at 4° C. for 45 min. After wash with PBS, cells were incubated with AF488 labeled goat anti-human IgG Fc. Binding was analyzed by low cytometry using Attune N×T Flow Cytometer.
After wash with PBS, cells were incubated with a AF488 labeled goat anti-human IgG Fc secondary antibody at 4° C. for another 45 min. After two wash steps, binding was analyzed by flow cytometry using Attune N×T Flow Cytometer.

[3] = target: T2, human CD3 on Jurkat cell surface (human, UniProt P07766 23-207); experiment: flow cytometry on Jurkat cells, AF488 goat anti-human IgG Fc detection
T2 construct: whole, on cells; also called cell surface CD3 of Jurkat
Method: For CD3 binding, Jurkat cells were dispensed into a 96-well plate at 2×10⁵/well, and incubated with indicated agents at 4° C. for 45 min. After wash with PBS, cells were incubated with AF488 labeled goat anti-human IgG Fc. […] After wash with PBS, cells were incubated with AF488 labeled goat anti-human IgG Fe.
After wash with PBS, cells were incubated with a AF488 labeled goat anti-human IgG Fc secondary antibody at 4° C. for another 45 min.

[4] = target: T1, human Trop2 on the cell surface (A-431, …); experiment: flow cytometry on A-431 cells, AF488 goat anti-human IgG Fc detection
Method: All incubations were 45 min at 4° C. plus washes with 1% BSA in PBS between incubations. Binding signal was measured by Attune™ N×T Acoustic Focusing Cytometer (ThermoFisher Scientific).

T2 sequence (P07766 23-207): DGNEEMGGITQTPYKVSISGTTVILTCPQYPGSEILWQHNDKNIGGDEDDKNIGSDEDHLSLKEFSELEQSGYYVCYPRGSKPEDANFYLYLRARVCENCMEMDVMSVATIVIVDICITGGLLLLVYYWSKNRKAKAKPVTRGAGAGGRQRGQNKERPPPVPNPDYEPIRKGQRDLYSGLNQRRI

Binder | IC50, 60-hour MTS viability assay, BT-474 cells with human PBMCs (10:1) [1] | IC50, 60-hour MTS viability assay, HCT116 cells with human PBMCs (10:1) [1] | IC50, 60-hour MTS viability assay, MDA-MB-231 cells with human PBMCs (10:1) [1] | IC50, 60-hour MTS viability assay, MDA-MB-468 cells with human PBMCs (10:1) [1] | EC50 (read off the curve) [2] | binding result [3] | EC50 (read off the curve) [4]
B1 | ~0.02 nM | ~0.018 nM | ~0.013 nM | ~0.006 nM | ~10 nM |  | 
B2 |  |  |  |  | ~6 nM | no binding (tested: 20.0 nM) | ~10 nM
B3 |  |  |  |  |  |  | ~10 nM
